# Measurements from the Immune Epitope Database (IEDB).
# How the values were obtained:
# HLA-B*40:01 [1] = assay: IEDB peptide-MHC binding, purified MHC/competitive/radioactivity; filed as Kd, often an IC50 or EC50 that approximates it; ≥ and ≤ were set here for values at or beyond the usual limits of such assays
# HLA-A*02:01 [2] = assay: IEDB peptide-MHC binding, purified MHC/direct/fluorescence; filed as Kd, often an IC50 or EC50 that approximates it; ≥ and ≤ were set here for values at or beyond the usual limits of such assays
# HLA-A*02:01 [3] = assay: IEDB peptide-MHC binding, purified MHC/competitive/fluorescence; ≥ and ≤ were set here for values at or beyond the usual limits of such assays
# HLA-A*26:01 = assay: IEDB peptide-MHC binding, purified MHC/competitive/radioactivity; filed as Kd, often an IC50 or EC50 that approximates it; ≥ and ≤ were set here for values at or beyond the usual limits of such assays
# HLA-A*30:02 = assay: as above
# HLA-A*24:02 = assay: as above
# HLA-A*01:01 [4] = assay: as above
# HLA-B*53:01 = assay: as above
# HLA-A*31:01 [5] = assay: as above; details: source organism: Vaccinia virus WR
# HLA-A*33:01 = assay: as above; details: source organism: Vaccinia virus WR
# HLA-A*29:02 = assay: as above; details: source organism: Vaccinia virus WR
# HLA-A*11:01 [6] = assay: as above; details: source organism: Vaccinia virus WR
# HLA-A*03:01 [7] = assay: as above
# HLA-A*68:01 = assay: as above; details: source organism: Vaccinia virus WR
# HLA-A*69:01 = assay: IEDB peptide-MHC binding, purified MHC/direct/fluorescence; filed as Kd, often an IC50 or EC50 that approximates it; ≥ and ≤ were set here for values at or beyond the usual limits of such assays
# HLA-B*40:01 [8] = assay: as above; details: source organism: Mycobacterium tuberculosis variant bovis
# HLA-A*01:01 [9] = assay: as above; details: source organism: Homo sapiens
# HLA-A*03:01 [10] = assay: as above
# HLA-A*31:01 [11] = assay: as above; details: source organism: Plum pox virus
# HLA-A*11:01 [12] = assay: as above; details: source organism: Coxiella burnetii
# HLA-B*07:02 = assay: as above; details: source organism: Homo sapiens
# HLA-B*58:01 = assay: as above; details: source organism: Mammarenavirus juninense
# [13] = source organism: Dengue virus 3 Martinique/1243/1999
# [14] = source organism: Mycobacterium tuberculosis
# [15] = source organism: Dengue virus 2 Jamaica/1409/1983
# [16] = source organism: Dengue virus 4 Philippines/H241/1956
# [17] = source organism: Zaire ebolavirus
# [18] = source organism: Dengue virus 1 Brazil/97-11/1997
# [19] = source organism: Dengue virus 1 Singapore/S275/1990
# [20] = source organism: Vaccinia virus WR
# [21] = source organism: Sudan ebolavirus
# [22] = source organism: Vibrio parahaemolyticus
# [23] = source organism: Mycobacterium tuberculosis variant bovis
# [24] = source organism: Mammarenavirus guanaritoense
# [25] = source organism: Mammarenavirus whitewaterense
sequence,measurement,setting,value
AEPDGPTPEL,Kd,HLA-B*40:01 [1]; [13],10.7 nM
ALAAATPMV,Kd,HLA-A*02:01 [2]; [14],5.2 nM
ALFSSCPV,IC50,HLA-A*02:01 [3]; source organism: Mus musculus,291 nM
ALLDLGWTI,Kd,HLA-A*02:01 [2]; [14],0.9 nM
ATMTDDIGM,Kd,HLA-A*26:01; [15],8340 nM
AVVIVGLHGV,IC50,HLA-A*02:01 [3]; source organism: Human alphaherpesvirus 1 strain 17,≥ 50000 nM
AWNFLEVEDY,Kd,HLA-A*30:02; [16],85.3 nM
AYVVIGILTL,Kd,HLA-A*24:02; [13],938 nM
CSHHFHELV,Kd,HLA-A*01:01 [4]; [15],≥ 23400 nM
DVIPMVTQL,Kd,HLA-A*26:01; [16],112 nM
DVVDRGWGN,Kd,HLA-A*26:01; [16],≥ 77900 nM
EELPETMETL,Kd,HLA-B*40:01 [1]; [13],191 nM
EFIDGISLGL,Kd,HLA-A*26:01; [16],4720 nM
EGAFFLYDR,IC50,HLA-A*02:01 [3]; [17],≥ 508000 nM
EPSKGWNDW,Kd,HLA-B*53:01; [18],1110 nM
ESEMIIPKIY,Kd,HLA-A*01:01 [4]; [19],6210 nM
same,Kd,HLA-A*26:01; [19],19900 nM
same,Kd,HLA-A*30:02; [19],11700 nM
ESMASLKSLY,Kd,HLA-A*31:01 [5],3190 nM
same,Kd,HLA-A*33:01,15900 nM
same,Kd,HLA-A*29:02,≥ 71400 nM
same,Kd,HLA-A*11:01 [6],116 nM
same,Kd,HLA-A*03:01 [7]; [20],7.63 nM
same,Kd,HLA-A*68:01,4.63 nM
ETTKHAVSRG,Kd,HLA-A*26:01; [18],≥ 69700 nM
EVDSFSLGL,Kd,HLA-A*01:01 [4]; [19],10500 nM
FFLYDRLAS,IC50,HLA-A*02:01 [3]; [21],40000 nM
FGVFTTNIW,Kd,HLA-B*53:01; [15],111 nM
FQLAAPSGF,Kd,HLA-A*02:01 [2]; [22],9000 nM
same,Kd,HLA-A*69:01; [22],≥ 20000 nM
GEPDARYEI,Kd,HLA-B*40:01 [8],70.2 nM
GETAWDFGSV,Kd,HLA-B*40:01 [1]; [16],388 nM
GEYRLRGEAR,Kd,HLA-B*40:01 [1]; [15],1900 nM
GMVPLHIPE,IC50,HLA-A*02:01 [3]; [21],≥ 103000 nM
GSDGGLDDY,Kd,HLA-A*01:01 [9],58.1 nM
same,Kd,HLA-A*69:01; source organism: Homo sapiens,1930 nM
GSQPGGPLK,Kd,HLA-A*03:01 [10]; [23],1570 nM
GTDAPCKIPF,Kd,HLA-A*01:01 [4]; [18],≥ 44700 nM
GTMHQEIFR,Kd,HLA-A*31:01 [11],41.9 nM
same,Kd,HLA-A*03:01 [10]; source organism: Plum pox virus,83.9 nM
GVQPSATGR,Kd,HLA-A*03:01 [10]; [23],≥ 20000 nM
HPGAGKTKRY,Kd,HLA-B*53:01; [15],≥ 20200 nM
HVTRGAVLM,Kd,HLA-A*26:01; [15],4890 nM
IAGGMLIACY,Kd,HLA-A*30:02; [18],418 nM
IHLAIMAVF,Kd,HLA-A*24:02; [16],71.9 nM
IIVNNQESNK,Kd,HLA-A*31:01 [5],≥ 29900 nM
same,Kd,HLA-A*33:01,≥ 36200 nM
same,Kd,HLA-A*29:02,≥ 68200 nM
same,Kd,HLA-A*11:01 [6],4400 nM
same,Kd,HLA-A*03:01 [7]; [20],1130 nM
same,Kd,HLA-A*68:01,3230 nM
ILCGWHLLK,Kd,HLA-A*11:01 [12],3.8 nM
same,Kd,HLA-A*03:01 [10]; source organism: Coxiella burnetii,33.2 nM
ILQDMRNTI,Kd,HLA-A*02:01 [2]; source organism: Alto Paraguay hantavirus,7.6 nM
IPYHIVNIV,Kd,HLA-A*69:01; source organism: Homo sapiens,1340 nM
same,Kd,HLA-B*07:02,3460 nM
KCDICTDEY,Kd,HLA-A*01:01 [9],806 nM
KERMVTFKV,Kd,HLA-B*40:01 [1]; [16],5760 nM
KLDPTNTLW,Kd,HLA-B*58:01,66.9 nM
KLLPDTAAV,Kd,HLA-A*02:01 [2]; source organism: Amur virus,2.1 nM
KLMSGKDVFY,Kd,HLA-A*01:01 [4]; [13],1480 nM
same,Kd,HLA-A*03:01 [7]; [13],15.9 nM
same,Kd,HLA-A*30:02; [13],≥ 69700 nM
KRHSTKYHL,Kd,HLA-A*24:02; [24],≥ 60300 nM
same,Kd,HLA-A*26:01; [24],≥ 77900 nM
same,Kd,HLA-A*30:02; [24],≥ 33300 nM
KYPNLNDLK,Kd,HLA-A*01:01 [4]; [25],≥ 41000 nM
same,Kd,HLA-A*26:01; [25],≥ 77900 nM
same,Kd,HLA-A*30:02; [25],9570 nM
LETRAETWM,Kd,HLA-B*40:01 [1]; [16],261 nM
LGLITNTIA,IC50,HLA-A*02:01 [3]; [17],35300 nM
LIGLTARATW,Kd,HLA-B*53:01; [18],1810 nM
